Our source for the HUVECs undergoing apoptosis values is paper PMC8188212, “Multi‐Arm PEG/Peptidomimetic Conjugate Inhibitors of DR6/APP Interaction Block Hematogenous Tumor Cell Extravasation” (Advanced Science, 2021).

In the series the test system is HUVECs. Put plainly: Apoptosis analysis, annexin V-FITC/PI flow cytometry. It counts as cell-based, human. To be noted: 24 h, rhTRAIL 100 ng mL^–1 as positive control. The method, then: To evaluate the number of apoptotic cells after treatment of AHP‐DRI‐12 and PEG‐tAHP‐DRI, 5 × 10^5 HUVECs were seeded in six‐well plates and treated with rhTRAIL (100 ng mL^–1, Peprotech) or AHP‐DRI‐12 and PEG‐tAHP‐DRI (0.1 × 10^–6, 1.0 × 10^–6, 10 × 10^–6 M AHP‐DRI‐12). After incubating for 24 h, HUVECs were harvested and resuspended in 100 µL binding buffer, and then stained with FITC‐labeled annexin V and propidium iodide (PI) (BD Biosciences) according to the manufacturer's instructions. The apoptotic number of HUVECs was measured by flow cytometry.
A general note: A flow cytometer gives signals particle by particle.

Take TRAIL: the HUVECs undergoing apoptosis turned out to be 30%.
